target: T1, human plasma kallikrein (human, UniProt P03952 20-390; P03952 391-638); assay: ELISA, biotinylated pKal signal over streptavidin background
T1 construct: also called pKal; Human pKal
Description: Abbreviations used: “T/B” is the ELISA signal obtained using of the “target” (biotinylated plasma kallikrein) divided by the ELISA signal of the “background” (streptavidin); both of which were coated on microtiter plates, “nd” is not determined. The symbol “q” refers to the amber suppressible stop codon (TAG), which is translated as glutamine (Q) in strains of E. coli such as the TG1 cells that were used to express the Fab fragments.

T1 sequence (P03952 20-390, chain 1 of 2): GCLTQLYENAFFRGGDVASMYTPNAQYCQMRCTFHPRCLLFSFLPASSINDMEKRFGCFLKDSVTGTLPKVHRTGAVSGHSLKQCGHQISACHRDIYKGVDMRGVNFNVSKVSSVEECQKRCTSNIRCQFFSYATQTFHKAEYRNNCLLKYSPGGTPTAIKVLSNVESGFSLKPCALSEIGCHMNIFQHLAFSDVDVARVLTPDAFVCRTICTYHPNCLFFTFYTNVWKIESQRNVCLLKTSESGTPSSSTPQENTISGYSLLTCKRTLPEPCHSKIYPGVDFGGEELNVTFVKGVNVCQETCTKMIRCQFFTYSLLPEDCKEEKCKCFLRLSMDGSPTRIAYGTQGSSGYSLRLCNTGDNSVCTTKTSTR
T1 sequence (P03952 391-638, chain 2 of 2): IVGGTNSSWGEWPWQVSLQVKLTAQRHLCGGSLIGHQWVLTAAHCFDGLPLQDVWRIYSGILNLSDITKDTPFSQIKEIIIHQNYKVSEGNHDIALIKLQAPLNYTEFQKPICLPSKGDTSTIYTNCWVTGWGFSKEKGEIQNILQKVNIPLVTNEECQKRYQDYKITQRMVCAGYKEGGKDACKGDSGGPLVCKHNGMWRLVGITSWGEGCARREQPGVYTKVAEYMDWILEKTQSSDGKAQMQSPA

Binder	ELISA (T/B)
M41-A11 (Fab, V domains shown, HC as printed runs into CH1) VH: EVQLLESGGGLVQPGGSLRLSCAASGFTFSHYRMSWVRQAPGKGLEWVSSIYPSGGRTVYADSVKGRFTISRDNSKNTLYLQMNSLRAEDTAVYYCAKDKFEWRLLFRGIGNDAFDIWGQGTMVTVSS VL: QSVLTQPPSVSVSPGQTASITCSGDKLGDKYTSWYQQRPGQSPVLVIYQDIKRPSGIPERFSGSNSGNTATLTISGTQAMDEADYYCQAWDSPNARVFGSGTKVTVL	28
M7-B04 (Fab, V domains shown, HC as printed runs into CH1) VH: EVQLLESGGGLVQPGGSLRLSCAASGFTFSWYSMVWVRQAPGKGLEWVSSISPSGGLTNYADSVKGRFTISRDNSKNTLYLQMNSLRAEDTAVYYCARHTAARPFYYYYMDVWGKGTTVTVSS VL: QSALTQPASVSGSPGQSITISCTGTNSDVGNYNLVSWYQQHPGEAPKLLIYEVNKRPSGVSNRFSGSKSGNTASLTISGLQAEDEADYLCCSYAGNRNFYVFGAGTKVTVL	4.1
M8-A09 (Fab, V domains shown, HC as printed runs into CH1) VH: EVQLLESGGGLVQPGGSLRLSCAASGFTFSTYFMLWVRQAPGKGLEWVSSIYPSGGNTVYADSVKGRFTISRDNSKNTLYLQMNSLRAEDTAVYYCARAASPVRNYYYYGMDVWGQGTTVTVSS VL: QCELTQPPSESVSPGQTANITCSGDKLGNKYAYWYQQKPGQSPVLVIYQDNNRPSGIPERFSGSNSGNTATLTISGTQAIDEANYYCQAWDSRTVVFGGGTKLTVL	5.4
M38-F02 (Fab, V domains shown, HC as printed runs into CH1) VH: EVQLLESGGGLVQPGGSLRLSCAASGFTFSYYMMVWVRQAPGKGLEWVSYIYSSGGHTVYADSVKGRFTISRDNSKNTLYLQMNSLRAEDTAVYYCARDLFLYDFWSKGAFDIWGQGTMVTVSS VL: QSVLTQPPSVSVSPGQTASITCSGEKLGDKYVSWYQQKPGQSPSLVICEDSRRPSGIPERFSGSNSGNTATLTISGAQPMDEADYYCQAWDSSTAIFGPGTKVTVL	33.5
M7-E07 (Fab, V domains shown, HC as printed runs into CH1) VH: EVQLLESGGGLVQPGGSLRLSCAASGFTFSWYLMIWVRQAPGKGLEWVSYIYPSGGFTYYADSVKGRFTISRDNSKNTLYLQMNSLRAEDMAVYYCARTEGPLSWGYGMDVWGQGTTVTVSS VL: not shown	45.7
M27-E05 (Fab, V domains shown, HC as printed runs into CH1) VH: EVQLLESGGGLVQPGGSLRLSCAASGFTFSWYLMIWVRQAPGKGLEWVSYIYPSGGFTYYADSVKGRFTISRDNSKNTLYLQMNSLRAEDMAVYYCARTEGPLSWGYGMDVWGQGTTVTVSS VL: not shown	41.3
M29-D09 (Fab, V domains shown, HC as printed runs into CH1; also called 559A-M0029-D09) VH: EVQLLESGGGLVQPGGSLRLSCAASGFTFSWYTMVWVRQAPGKGLEWVSYIYPSGGATFYADSVKGRFTISRDNSKNTLYLQMNSLRAEDTAVYYCAMGSYDYIWGFYSDHWGQGTLVTVSS VL: QSALTQPPTVSVSPGQTARITCSGNKLGDKYVAWYQQKPGQSPMLVIYQDTKRPSRVSERFSGSNSANTATLSISGTQALDEADYYCQAWDSSIVIFGGGTRLTVL	47.5
M10-F10 (Fab, V domains shown, HC as printed runs into CH1) VH: EVQLLESGGGLVQPGGSLRLSCAASGFTFSFYNMNWVRQAPGKGLEWVSSISPSGGETNYADSVKGRFTISRDNSKNTLYLQMNSLRAEDTAVYYCARGGGAYRNNWWGGFDIWGLGTMVTVSS VL: DIQMTQSPSSLSASVGDRVTITCRASQSISVYLNWYQHKPGKAPKLLIYGASNLQFGVPSRFSGSGYGTDFTLTISSLQPEDFATYHCQQTFSLFTFGGGTKVEIK	39.2
M29-E09 (Fab, V domains shown, HC as printed runs into CH1) VH: EVQLLESGGGLVQPGGSLRLSCAASGFTFSWYEMGWVRQAPGKGLEWVSSIYSSGGGTMYADSVKGRFTISRDNSKNTLYLQMNSLRAEDTAVYYCARNPQYSGYDRSLSDGAFDIWGQGTMVTVSS VL: QYELTQPPSVSVSPGQTATITCSGDNLGNKYNSWYQQKPGQSPLLVIYQDTKRPSAIPERFSGSNSGNTATLTISGTQAMDEADYYCQAWDGNVVFGGGTKLTVL	28.8
M73-D06 (Fab, V domains shown, HC as printed runs into CH1) VH: EVQLLESGGGLVQPGGSLRLSCAASGFTFSRYEMYWVRQAPGKGLEWVSSISSSGGPTAYADSVKGRFTISRDNSKNTLYLQMNSLRAEDTAMYYCAKGTPKWELLLRSIYIENAFDIWGQGTMVTVSS VL: QSELTQPPSASETPGQRVTISCSGSSSNIGSNTVSWFQQLPGSAPRLLIYNDHRRPSGVPDRFSGSKSGTSASLVISGLQSQDEADYYCSAWDDSLNGVVFGGGTKLTVL	4
M6-D09 (Fab, V domains shown, HC as printed runs into CH1; also called M06-D09; 559A-M0006-D09) VH: EVQLLESGGGLVQPGGSLRLSCAASGFTFSFYYMVWVRQAPGKGLEWVSVIYPSGGITVYADSVKGRFTISRDNSKNTLYLQMNSLRAEDTAVYYCARDKWAVMPPYYYYAMDVWGQGTTVTVSS VL: DIQMTQSPSSLSASVGDRVTITCRASQSIRNYLNWYQQKPGKAPNLLIYAASTLQSGVPARFSGSGSGTDFTLTISSLQPEDFATYYCQQLSGYPHTFGQGTKLEIK	39.9
M35-G04 (Fab, V domains shown, HC as printed runs into CH1; also called 559A-M0035-G04) VH: EVQLLESGGGLVQPGGSLRLSCAASGFTFSYYHMSWVRQAPGKGLEWVSVISPSGGSTKYADSVKGRFTISRDNSKNTLYLQMNSLRAEDTAVYYCARGGSSDYAWGSYRRPYYFDYWGQGTLVTVSS VL: DIQMTQSPATLSLSPGERATLSCRASQSVSSYLAWYQQKPGQAPRLLIYDASNRATGIPARFSGSGSGTDFTLTISSLEPEDFAVYYCQQRSNWPRGFTFGPGTKVDIK	11.1
M76-D01 (Fab, V domains shown, HC as printed runs into CH1 (ends APSPKS as printed)) VH: EVQLLESGGGLVQPGGSLRLSCAASGFTFSFYAMHWVRQAPGKGLEWVSGIVPSGGRTHYADSVKGRFTISRDNSKNTLYLQMNSLRAEDTAVYYCATDSSGSPNPLFDYWGQGTLVTVSS VL: DIVMTQTPPSLPVNPGEPASISCRSSQSLSDDGNTYLDWYLQRPGQSPQLLIHTLSYRASGVPDRFSGSGSGTDFTLKISRVEAEDVGVYYCMQGTHWPPTFGQGTKVEIK	11.2

The remaining lines, values ahead:

ELISA (T/B)	Binder
40	M145-D11 (Fab, V domains shown, HC as printed runs into CH1; also called 559A-M0145-D11) VH: EVQLLESGGGLVQPGGSLRLSCAASGFTFSHYRMSWVRQAPGKGLEWVSSIYPSGGRTVYADSVKGRFTISRDNSKNTLYLQMNSLRAEDTAVYYCAKDKFEWRLLFRGIGNDAFDIWGQGTMVTVSS VL: QSVLTQPPSVSVSPGQTASITCSGDKLGDKYTSWYQQRPGQSPVLVIYQDIKRPSGIPERFSGSNSGNTATLTISGTQAMDEADYYCQAWDSPNARVFGSGTKVTVL
16.1	M77-C07 (Fab, V domains shown, HC as printed runs into CH1) VH: EVQLLESGGGLVQPGGSLRLSCAASGFTFSLYIMGWVRQAPGKGLEWVSGIYPSGGFTMYADSVKGRFTISRDNSKNTLYLQMNSLRAEDTAVYYCARESSGVAAPDYWGQGTLVTVSS VL: DIQMTQSPSTLSASVGDRVTITCRASQNISSYLNWYQQKPGKAPKLLIYAASSLQSGVPSRFSGSGSGTDFTLTISSLQPEDFATYSCQQSYSTPRTFGQGTKVEIK
19	M152-A12 (Fab, V domains shown, HC as printed runs into CH1) VH: EVQLLESGGGLVQPGGSLRLSCAASGFTFSPYFMGWVRQAPGKGLEWVSGIGPSGGSTTYADSVKGRFTISRDNSKNTLYLQMNSLRAEDTAVYYCAREGPPYSSGWYRGLRQYHFDYWGQGTLVTVSS VL: DIQMTQSPSSLSASVGDRVTITCRASQSISSYLSWYQQRPGKAPNLLIYAASSLQSGVPSRFSGSGSGTDFTLTISSLQPEDFATYYCQQSISIPRTFGQGTKVEVK
2.4	M110-C12 (Fab, V domains shown, HC as printed runs into CH1) VH: EVQLLESGGGLVQPGGSLRLSCAASGFTFSYYEMDWVRQAPGKGLEWVSGISSSGGHTAYADSVKGRFTISRDNSKNTLYLQMNSLRAEDTATYYCARERRSSSRARYYYGMDVWGQGTTVTVSS VL: DIQMTQSPLSLSVTPGEPASISCRSSLSLLHSNGYNYLDWYVQRPGQSPQLLMYLSSTRASGVPDRFSGSGSGTDFTLEISRVEAEDVGVYYCMQPLETPPTFGGGTKVEIK
29.9	M142-H08 (Fab) (Fab, V domains shown, HC as printed runs into CH1) VH: EVQLLESGGGLVQPGGSLRLSCAASGFTFSAYSMIWVRQAPGKGLEWVSYIRPSGGRTTYADSVKGRFTISRDNSKNTLYLQMNSLRAEDTAVYYCARGGLLLWFRELKSNYFDYWGQGTLVTVSS VL: DIQMTQSPSSLSAFVGDRVTITCRASQPIDNYLNWYHQKPGKAPKLLIYAASRLQSGVPSRLSGSGFGTDFTLTISSLQPEDFGNYYCQQSYTVPYTFGGGTKVEIR
4.5	M137-E12 (Fab, V domains shown, HC as printed runs into CH1) VH: EVQLLESGGGLVQPGGSLRLSCAASGFTFSDYRMQWVRQAPGKGLEWVSVIVPSGGNTMYADSVKGRFTISRDNSKNTLYLQMNSLRAEDTAVYYCARGGPGSSIAARRAPTGYYGMDVWGQGTTVTVSS VL: QSVLIQPPSVSGIPGQRVTISCSGNNSNFGSNTVTWYQQLPGTAPKLLIYSDSRRPSGVPDRFSGSRSDTSASLAISGLQSEDEAEYHCAAWDDSLNGVFGGGTKLTVL
7.6	M77-H04 (Fab, V domains shown, HC as printed runs into CH1) VH: EVQLLESGGGLVQPGGSLRLSCAASGFTFSYYTMIWVRQAPGKGLEWVSGIRSSGGGTRYADSVKGRFTISRDNSKNTLYLQMNSLRAEDTAVYYCAKDGSRYSYGSIYYYYGMDAWGQGTTVTVSS VL: not shown
49.6	M146-E12 (Fab, V domains shown, HC as printed runs into CH1) VH: EVQLLESGGGLVQPGGSLRLSCAASGFTFSRYIMHWVRQAPGKGLEWVSSISPSGGLTSYADSVKGRFTISRDNSKNTLYLQMNSLRAEDTAVYYCAREFENAYHYYYYGMDVWGQGTTVTVSS VL: DIQMTQSPSSLSASVGDRVTITCRASGDIGNALGWYQQKPGKAPRLLISDASTLQSGVPLRFSGSGSGTEFTLTISSLQPEDFATYYCLQGYNYPRTFGQGTKLEIR
6.2	M145-D01 (Fab, V domains shown, HC as printed runs into CH1) VH: EVQLLESGGGLVQPGGSLRLSCAASGFTFSYYHMSWVRQAPGKGLEWVSVISPSGGSTKYADSVKGRFTISRDNSKNTLYLQMNSLRAEDTAVYYCARGGSSDYAWGSYRRPYYFDYWGQGTLVTVSS VL: DIQMTQSPATLSLSPGERATLSCRASQSVSSYLAWYQQKPGQAPRLLIYDASNRATGIPARFSGSGSGTDFTLTISSLEPEDFAVYYCQQRSNWPRGFTFGPGTKVDIK
